The values that follow are results of earlier work, collected in publication PMC2174977.

As usually defined, the pKd is −log10 of the Kd, conventionally taken in molar units.

pKd: −log10 of the molar value.

For this data set, the target named is chemoreceptor (Tar) (Escherichia coli) (UniProt P07017).
UniProt P07017, sequence (P07017 whole entry): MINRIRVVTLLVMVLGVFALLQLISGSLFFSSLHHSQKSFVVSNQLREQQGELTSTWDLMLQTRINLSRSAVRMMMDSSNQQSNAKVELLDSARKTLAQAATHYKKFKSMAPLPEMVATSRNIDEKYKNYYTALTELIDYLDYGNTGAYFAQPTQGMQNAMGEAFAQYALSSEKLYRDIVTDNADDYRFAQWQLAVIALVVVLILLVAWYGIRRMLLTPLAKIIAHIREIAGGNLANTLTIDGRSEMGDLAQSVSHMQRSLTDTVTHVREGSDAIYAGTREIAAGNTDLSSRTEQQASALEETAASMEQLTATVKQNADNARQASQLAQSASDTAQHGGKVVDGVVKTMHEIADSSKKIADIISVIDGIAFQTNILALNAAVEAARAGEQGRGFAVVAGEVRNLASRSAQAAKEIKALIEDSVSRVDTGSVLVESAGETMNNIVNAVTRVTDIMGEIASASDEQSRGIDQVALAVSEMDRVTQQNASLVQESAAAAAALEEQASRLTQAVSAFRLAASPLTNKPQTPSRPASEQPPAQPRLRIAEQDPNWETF

For the substance CheR (from UniProt P07364), the pKd is 4.96.
